Our source for the protein production values is a protein production outcome set (Wang et al. 2014).

The data set is described as follows: label from the status in PepcDB records.
With “MKRFIVGIDLGTSNTVVAYVEAGGDAIRVFDVDQLVAPGEVGARPLLPSARYHPAPGEFAPGELQLPWRDAEAGDAADAGDAPPAVIGTLARTLGAQVPGRLVTSAKSWLSHASVDRLAPILPWGAADAGGKVSPVAASASYLAHVRAAWNRRFPDAPLEQQDVVLTVPASFDDGARSLTLEAARLAKLPALRLLEEPQAAFYDWLFHHRDSLREELARTRLVLVCDVGGGTTDLTLIKVHAEDGEPQLTRIGVGDHLMLGGDNMDLALARVAEARLARDGGARLSAASLSQLVERCRAAKERLLDANPPDSVGVTLLGAGARLVGGARKTELGRAEVEQIVVDGFFPAGGPDDLPRRSRAALVEFGLPYAADAAVTRHVAAFLHRLAAQSRDALGAAGASDRALPVPDTLLLNGGVFRSRALAERVAGVLGDWRGQPLHVLRNDHPDVAVARGAVAYGLARAGRAPRIGGGSPRSYFLVVDDGAHASRGVCVLPRGTAEGHDVRLDDRVFALRLGHPVRFHLASTVADHAWRAGELADLGAGGFVRLPPVATVVRRQDAGGASERLVKLTTSLTEVGTLDMRCIATDDSSQRWQLEFQLRREPAGGGDAADASRHPSLDEAIELIDRSFGARLANVDPKEVRRLRGQLEQLLGARDAWDIALLRELFGALWARAGRRRRSADHERVWLNLAGYCVRPGFGHPLDDWRVAQLWTLFDDGIQYVNDAQVWSEWWTLWRRAAGGLDDDAQREALDAMAWLQEAARAKRPKLPFDAAKIGDMDIVRLSASLERVPVERKIALGEDLLARLRRPAENHQCWWAIGRIGARRPLYGSAHGVVPPDVAGRWLDAILAVDWKKVEPAAFAAAQIARMTGDRSSDVAADVRERVVRRLAAMNASDAWVRMVSEVVALDSADTGRAFGESLPAGLKLVAD”, the protein production entry was “failed”.

As for “MKRFIVRAVLILVSFVLLIQLWIFCSLAWWRTHPVETTMFMRLDYWSDSSKPIQQQWRDYDEISDNFKKAVVAAEDGKFVHHHGFDWEGIQYALEKNEKSGEVVNGGSTISQQLAKNLFLYNQRSLIRKGQEAIATWMMERMWSKQRILEVYMNSVQFGDHLYGVEAASHYYFHRSAQNLTRDQAAFLAALLPNPKYYQENRNDPRFKFKKRFTLKYMRYSEIP”, the protein production entry is “failed”.

Turning to “MKRFNVLKYIRTTKANIQTIAMPLTTKPLSLKINAALFDVDGTIIISQPAIAAFWRDFGKDKPYFDAEHVIHISHGWRTYDAIAKFAPDFADEEYVNKLEGEIPEKYGEHSIEVPGAVKLCNALNALPKEKWAVATSGTRDMAKKWFDILKIKRPEYFITANDVKQGKPHPEPYLKGRNGLGFPINEQDPSKSKVVVFEDAPAGIAAGKAAGCKIVGIATTFDLDFLKEKGCDIIVKNHESIRVGEYNAETDEVELIFDDYLYAKDDLLKW”, the protein production entry was “not failed”.

Take “MKRGRRASPAAGQHFKVLACEPCVSRRGIYTTLSLQLQKRALQGLQGGAGRRDLSLDRKGFHGLFLRCPFAALRCCQLRLLLGELLLSIFNLLLYFLDRIIEGRLARTANAATTTCCTSLAAFGGSLIRAFLCLSGGRRSSSRLGCFGVGRLDRDRQRAGVAVQCRSIDGSHDGLLGF”: the protein production result is reported as “failed”.

Turning to “MKRKKIKNQLLVLTSILVLLSLEVAPVVTLAAELPSSSLQTALSSETTITSEEKVTETTETTVATSTTSTSSSSSESSSSTDTTTESTSQSTTETTTTNTSSETKKEPTEPTVSSEITQPVEQSQPPQVPVTKQEPEEPIQVPEANNNFVEENQAVSLNPSLKVDEIASSNLKGYELPLLSSFGEKKRAVVVAEALRHVGKTKKEFNLTEQALTSSFLAQKIYQQLFKIDIGSTPQEQMTFGKVRSIEEAEPGDLIFWQTAEGKTLQNGVYLGQGKYLIAAAESDSKEKPEVIAQLENIYTAKQQPDSKEEKRLVVTNPFKEFILTEYGKEVLATYGASFEMQKSEQTTAFIKKIGETARELGEKYDVFASVMIAQAILESGSGESQLAKEPYYNLFGVKGSFQGNSVSFSTKEADQRGQLYTISAGFRDYGGYNDSLQDYVQLLRQGIDGNQDFYKPAWRSEAKNYLQATRFLTGKYATDKQYDNKLNSLIAVYNLTQFDLPKTVDGLIIQSKNKLSEAEQQQMHFPVYDGINYNRSGSYPVGQCTWYVYNRFKQLGTSVDEFMGNGSDWGRKGRALGYQVSSLPKAGRAISFQPGVAGADNQYGHVAFVEAVTSDGIIISESNVINDQTISYRVLPNVIAYSSGVTYIGA”, the protein production result was “failed”.

In the case of “MKRLPLLAALPLLCASALSAQPLMSVGYFNGGGDVTAGPGGDIDKLDVRQITHLNYSFGLIYNDEKDETNAALKDPAHLHEIWLSPKVQADLQKLPALRKQNPDLKVLLSVGGWGARGFSGAAATAESRAVFIRSAQKIIQQYGLDGIDLDWEFPVNGAWGLVASQPADRDNFTALLKSLREAVGEQKLVTIAVGANAESPKSWVDVKAVAPVLNYINLMTYDMAYGTQYFNSNLYDSSHWPTVAAADKYSADFVVNNYLAAGLKPSQMNLGIGFYGRVPKRAVEPGIDWTKADAQNNPVTQPYFGPQQIALFASLGYDLSKDTYVKYNDIVGKLLNDPQKRFTEHWDDEAKVPWLSVQSAEGKPLFALSYENPRSVAIKADYIKAKGLAGAMFWEYGADDQNQLARQLAESLGIKH”, the protein production entry is reported as “not failed”.

Consider “MKRLYKAMFIVFILLVLMFASQQGLFEHVTNSNWVAHFIKAEGNYALMALLAVGALFTAVGGPRQVIAFVFGFALGGIYGGLFSTLAALLGCVLVFYTARLTIRSSLQRRFGHRLQKFEALIIHRTWLKVLMIRLLPVGSNLLTNLFAGATHISPGGFLFGSMLGYLPQMLIFSFAGAGIGLADHNQLWISIGLFIVSSLIGAYLYRSSLRKQVDELEH”, for which the protein production entry is on record as “failed”.

Take “MKRMSSLEYHFGVKVRFYPSNNQKKMIKQNYDAQRFVYNQYVGAGRLIYHVKKANRIKQLSSGLPFVMQGMSEYENQQALRMIDTQDLISKPKNIRDKYDFLRVEDIDSLAIANAIQNYHKAWRNYHKIGYGIPTFHKKRSSWSYQTNCQYIKQDAAYLDNGTVRFIDAKHVKLPKLGIVRIAGLRKLIKKRLFNRIPIRIGTASIKKTADDQFYLSLQLGSDIAFVKDYAKTQKQIGIDLNLDNFLTDSNGAMVANPRFYRRAKKKLAHAQRILSRRERRAKKEGRSLCESKNYQKQRLAVAKLHDRIRRQRQDFLQVLSTALIKNHDLVVAEELRSKNLLKNHALAQSISDAGWRSFLTMLEYKADLHGKKFVTIDPKFTTQRCHNCGNIMGQNGYKKLTLKDRKWTCPVCGSYHIRDWNASVNILEKSKGIWKNPKIKKRSK”: the protein production result was “failed”.

For the sequence “MKRNTRLLFVVPAFFAIFAMACACQGGTAGKSFTNSTGSPGEMMLVMDDQYLGSPVGEAIYEAMTEVAPALNQNEPIMAVSRVSEKDFTGFLRYIRNVLQIDINPDIFTKTSLKYGYDQWANGQLVVLINSPATDSLTAYVESNKSAIQNLFIRHELFLFGQLWQKDCSADADQRVQRMFGYHINVPADILSHKEGKDFLWMSNNQMRRRKDFLVYTFPYRGASDLGLDRMVEVRDSVLKANIEGSDAGSYPVTERMLLKHRYVYPGDQKRGEVHGIWRMEGGQMMSGPFVAQAFVDGDRVVVVEGFVYHPNEKKRDLMRQMEAALYSMRPKAEKEFDPSIIRKARWTTLK”, the protein production result is “failed”.

Regarding “MKRPGAIPTVQIDNERVKVTEWRFPPGGETGWHRHSMDYVVVPMTTGPLLLETPEGSVTSQLTRGVSYTRPEGVEHNVINPSDTEFVFVEIEIKAA”, the protein production result is given as “not failed”.

For the sequence “MKRRSVLLSGVALSGTALANDSIFFSPLKYLGAEQQRSIDASRSLLDNLIPPSLPQYDNLAGKLARRAVLTSKKLVYVWTENFGNVKGVPMARSVPLGELPNVDWLLKTAGVIVELIVNFVASLPASAAAQFERIATGLSGDLEAARQVHEALLEEAKNDPAAAGSLLLRFTELQTRVIAILTRVGLLVDDILKSASNLVTQRGQGDGLNRFRAVFGTLRLPEVADSFRDDEAFAYWRVAGPNPLLIRRVDALPANFPLGEEQFRRVMGADDSLLEAAASRRLYLLDYAELGKLAPSGAVDKLLTGTGFAYAPIALFALGKDRARLLPVAIQCGQDPATHPMFVRPAESESDLYWGWQMAKTVVQVAEENYHEMFVHLAQTHLVSEAFCLATQRTLAPSHPLHVLLAPHFEGTLFINEGAARILLPSAGFIDVMFAAPIQDTQATAGGNRLGFDFYRGMLPESLKARNVDDPLALPDYPYRDDGLLVWNAIRQWAADYVAVYYASDGDVTADVELAAWVGEVIGSGKVAGFRPITGRSQLVEVLTMVIFTASAQHAAVNFPQPSMMTYAPAICAMSAAPAPDSPSGKSEADWLKMMPPTLVALEKVNIYHLLGSVYHGRLGDYRQTGFPYAPVFSDRRVTASGGPLERFQARLKEVEATIRTRNQARRRPYEYLLPSRIPASTNI”, the protein production entry is given as “failed”.

For the sequence “MKRSASLKEDVFLKSKVHFWTLEVLMVVAIIFICTKISFLFQPIGIFISTLFFPILIALFLYFIFNPVLVFLEEKKVPRNLAILLLYLFIITLTAVGVGVVVPTISQQLMDLVKNMPGYIKEGKLYIQDLSHHRLFEWLSTQNYVSIETIEKNAIEYLKDIPNTITSSATALFGIITNVALVIFTVPFILFYMFKDGHAFPGKAVSLLPESYREEGLRIIKETNETLSAYIQGQALVCIFVGAFTFIGYLIIDLPYAFVLGIIAAFTNIIPNLGPFIGAAPAVIVGLFVSPMQALYVIIIVTIVQQFESNIISPRIMSSKLNIHPLTIIILILGVGNFAGIIGMILAVPVYAVTKTVVSNLVRLFKTKRSNRK”, the protein production result is “failed”.

For the sequence “MKRSEKKSMSSALKNGIMERTQPEKVVQMQGTADLSTSKLGTKKYWDELYALELENFRRNPQDTGDCWFSDSDAEQKMIDFLVDNIGAYRISENASVVDLGTGNGHMLFELHQTEFQGKLVGIDYSEESVKLASNIAEATGVDNFISFQQADIFSGDWKPGKYDIVLDKGTLDAISLSGMKINGKLDVVDVYAGVVERILKKDGIFLITSCNFTQDELVKIIETDNLKMWKTIKYPVFQFGGVQGATICSVAFVKQN”, the protein production result is “failed”.

As to “MKRSILNTLLNVLAIIFIVFLMIKVSVPMGSILLLSFIIFKLTINKHLIYMFKGAKKLRANNLEEALSLYRKAALCNSSNVKAIKTYVFLELKIGSYTEALETLKSIVSKRKFLPEDANQLDLLQAILYWKLNDIKTSLQILDDLKANNFNSLDFYEVYGYVLIQDEDFEKAISISNEGLKVDELSQIIRANLGEIFYKIGDIKKACFYFDELIDECVNFSEPYYFMGIISKEKEDFYKAKEFLNKALKYDESILSNLSKNDIENALISINH”, the protein production entry is given as “failed”.

Turning to “MKRSNTVRLVVSKEQHEVLKRLGIATAKCWNEVNWLRMKQYKEGKRVDFGITEKAVYEKYKSVLRVNAQQVARKNAEDWRSFFSLTREKKEGKLPSWFKPRPPGYWKDGRLIVIIRNDRYTVDERNRVVYLKDFNLSLKFKGRLKWHGKQGRLEIIYDEARKIWYAHIPVEVETEKVKEGIKASIDLGIVNLATVYVEDGSWYLFKGGSALSHYENYSKRITIVQKTLHRHRQRRSRRLKLLHEKRSRFLKHALNSMVRRIMEILREKNVGEVVVGYPKEIAKHHGNKLTVNFWNYSYIIKRLEDIGEELGIKVITVDEAYTSKTCSLCGEAHEDGRVKRGLFVCPRTRKAINADLNGAINILHIPESRGSEGNFHRGIGVIGLKTQPVTLSDLSKIKNHYNYSISDYTILHYIQPLEHHHHHH”, the protein production result was “not failed”.

For “MKRSSPVILVSEDEYGKFDESTNSILVKGKMHHLGISRVIEPGDELIVSGKSFIVSDFSPMYFGRVIRRNTQIISEIDASYIIMRCGLRPGMDILEVGVGSGNMSSYILYALNGKGTLTVVERDEDNLKKAMDNLSEFYDIGNVRTSRSDIADFISDQMYDAVIADIPDPWNHVQKIASMMKPGSVATFYLPNFDQSEKTVLSLSASGMHHLETVELMKRRILVREGATRPASDDLTHTAFITFAIKKSGMVYRI”, the protein production result is recorded as “not failed”.

As to “MKRTFKMALIASLAVGGSYVLYGSQNKEELSDLALSNVEALTLGTKDCMYQRNSRCYELVVGPPGEPVIIETSEEANWVNRYTIPE”, the protein production entry is “failed”.
